Kd data for one molecule are collected here from paper PMC8938504 (Nature Communications, 2022).

The target of test [1] is 6×His-tagged AVR-Pia (Magnaporthe oryzae). The test is described as follows: SPR; […] (single-cycle kinetics, […]; 25 °C; 20 mM Tris pH 8, 150 mM NaCl, 0.5 mM DTT; […]. Conditions: both partners purified. A general note: SPR reads the build-up and loss of mass on a sensor chip optically.
For test [2], the target named is 6×His-tagged AVR1-CO39 (Magnaporthe oryzae). The test is described as above. Conditions: both partners purified.
Chain of 6×His-tagged AVR1-CO39 (Magnaporthe oryzae) (F7J0N2 982-1116): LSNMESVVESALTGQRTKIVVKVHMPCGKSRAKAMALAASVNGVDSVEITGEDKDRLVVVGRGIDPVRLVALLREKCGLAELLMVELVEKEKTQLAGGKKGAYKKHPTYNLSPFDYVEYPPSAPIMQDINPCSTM

Chain of 6×His-tagged AVR-Pia (Magnaporthe oryzae) (F7J0N2 982-1116): as above

B1: MBP:RGA5_HMA (wild-type RGA5 HMA domain fused to the maltose-binding protein) (domain or fragment)
chain: SALTGQRTKIVVKVHMPCGKSRAKAMALAASVNGVDSVEITGEDKDRLVVVGRGIDPVRLVALLREKCGLAELLMVELVEKE
Take B1: the Kd in test [1] is 7.2 µM; in test [2], 4.9 µM.

One may read the Kd as the equilibrium constant for the complex coming apart. A higher Kd goes with weaker binding.
